Consider two sequences from patent US20130012690.

The series has as its target Tfl-bZip (GCN4 residues 226-281, leucine zipper leucines replaced with 5,5,5-trifluoroleucine) Leu to 5,5,5-trifluoroleucine in the GCN4-p1 dimerization domain (four d-position leucines) (UniProt P03069). Nature of the series: EMSA.

Chain of Tfl-bZip (GCN4 residues 226-281, leucine zipper leucines replaced with 5,5,5-trifluoroleucine) Leu to 5,5,5-trifluoroleucine in the GCN4-p1 dimerization domain (four d-position leucines) (P03069 whole entry, the tested form may be a part): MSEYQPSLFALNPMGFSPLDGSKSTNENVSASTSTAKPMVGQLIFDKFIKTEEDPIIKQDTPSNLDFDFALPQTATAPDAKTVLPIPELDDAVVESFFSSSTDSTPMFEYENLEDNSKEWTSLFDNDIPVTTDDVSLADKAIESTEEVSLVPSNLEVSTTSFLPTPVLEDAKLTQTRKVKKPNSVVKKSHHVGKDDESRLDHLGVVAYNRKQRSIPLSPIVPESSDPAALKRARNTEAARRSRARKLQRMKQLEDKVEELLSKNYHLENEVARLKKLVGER

Where the note is “densitometry, CD at 0 C also shows coil-to-helix transition on DNA binding”, “TGGAGATGACGTCATCTCCT (double strand) [CREB site oligonucleotide]” had a Kd of 5.4 nM.
As for “GTGGAGATGACTCATCTCCGG (double strand) [AP-1 site oligonucleotide]”, the dissociation constant Kd (densitometry of mobility shift assay) was 12.5 nM.
